These results are taken from PMC13368180, “In silico design and validation of high-affinity RNA aptamers for SARS-CoV-2 comparable to neutralizing antibodies”.

First the molecules themselves.
B1: Ta (RBD-PB6-Ta) (structured_RNA)
RNA: GGCGACAUUUGUAAUUCCUGGACCGAUACUUCCGUCAGGACAGAGGUUGCCA
B2: TaG34U (structured_RNA)
RNA: B1 RNA with G34U
B3: TaC23G (structured_RNA)
RNA: B1 RNA with C23G
B4: TaG34A (structured_RNA)
RNA: B1 RNA with G34A
B5: TaC23A (structured_RNA)
RNA: B1 RNA with C23A
B6: TaG34C (structured_RNA)
RNA: B1 RNA with G34C
B7: TaC23U (structured_RNA)
RNA: B1 RNA with C23U
B8: Tc (RBD-PB6-Tc) (structured_RNA)
RNA: GGUCCUGGACCGAUACUUCCGUCAGGACCA

Where a chain is given by its changes, count along the chain named.

The target in the first series is SARS-CoV-2 spike RBD (SARS-CoV-2, UniProt P0DTC2 319-541). Briefly: EMSA. Particulars: protein: commercial.
The Kd is the concentration at which binding is half-saturated. Lower therefore signals a tighter complex. Turning to B1, the Kd was found to be 111 µM. With B2, binding was characterised by a dissociation constant (Kd) of 54.7 ± 2 µM. Against the preceding molecule, the Kd is about 2-fold lower.

B3 showed a Kd of 168 µM.

Take B4: the dissociation constant (Kd) amounted to 55.5 ± 4.1 µM. Molecule B5 gave a Kd of 55.7 ± 9.8 µM. On the same count and under the same terms, as for B6, the figure is 33.5 ± 1.6 µM. Same read-out and setting: then B7, with 48.7 ± 2 µM.

Still in this series, the particulars now being: protein: commercial; hairpin.
Regarding B8, the binding result was “no binding”.
